Measurements published in US20260242735A1 (UNIVERSIT T BASEL, published 2026).

Key:
Assay in all cases: flow cytometry, IgG on cells expressing the mutant
human CD33 variant R122F = human CD33 variant R122F (human, UniProt P20138 18-364)
Protocol: (§1) An alanine scan on human CD33 was performed to the determine the residues on CD33 that are involved in binding to the antibodies investigated. […] Briefly, a mutation library of CD33 was created by high-throughput, site-directed mutagenesis. Each residue was individually mutated to alanine, with alanine codons mutated to serine. The mutant library was arrayed in 384-well microplates and transiently transfected into HEK293-T. Following transfection, cells were incubated with the indicated antibodies (IgG or Fab) at concentrations pre-determined using an independent immunofluorescence titration curve on wild type CD33. […] Binding of each antibody to each mutant clone was determined in duplicates. For each point, background fluorescence was subtracted from the raw data, which were then normalized to antibody reactivity with wild type CD33.
(§2) Antibodies were screened for binding to the human CD33 variants in IgG format. […] For each mutation, background fluorescence was subtracted from the raw data, which were then normalized to antibody reactivity with wild-type CD33.

human CD33 variant K52L = human CD33 variant K52L (human, UniProt P20138 18-364)
Protocol: as §1, §2

human CD33 variant I47P = human CD33 variant I47P (human, UniProt P20138 18-364)
Protocol: as §1, §2

human CD33 variant P48V = human CD33 variant P48V (human, UniProt P20138 18-364)
Protocol: as §1, §2

human CD33 variant Y50N = human CD33 variant Y50N (human, UniProt P20138 18-364)
Chain of human CD33 variant Y50N (P20138 18-364 Y50N limits assumed): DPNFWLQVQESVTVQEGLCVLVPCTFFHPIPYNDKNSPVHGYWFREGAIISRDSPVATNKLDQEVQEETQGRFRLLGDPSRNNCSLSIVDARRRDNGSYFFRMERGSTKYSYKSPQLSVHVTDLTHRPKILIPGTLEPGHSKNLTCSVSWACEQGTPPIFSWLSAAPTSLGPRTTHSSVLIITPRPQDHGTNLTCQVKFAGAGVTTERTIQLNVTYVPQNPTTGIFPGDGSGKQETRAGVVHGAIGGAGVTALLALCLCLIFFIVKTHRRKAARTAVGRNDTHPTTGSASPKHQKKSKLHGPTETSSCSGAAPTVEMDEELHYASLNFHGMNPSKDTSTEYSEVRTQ
Protocol: as §1, §2

human CD33 variant K52T = human CD33 variant K52T (human, UniProt P20138 18-364)
Protocol: as §1, §2

human CD33 variant R122G = human CD33 variant R122G (human, UniProt P20138 18-364)
Chain of human CD33 variant R122G (P20138 18-364 R122G limits assumed): as the sequence (P20138 18-364 Y50N limits assumed) above, with N33Y, R105G counted along it
Protocol: as §1, §2

human CD33 variant R122I = human CD33 variant R122I (human, UniProt P20138 18-364)
Chain of human CD33 variant R122I (P20138 18-364 R122I limits assumed): as the sequence (P20138 18-364 Y50N limits assumed) above, with N33Y, R105I counted along it
Protocol: as §1, §2

human CD33 variant I47Q = human CD33 variant I47Q (human, UniProt P20138 18-364)
Protocol: as §1, §2

human CD33 variant Y50Q = human CD33 variant Y50Q (human, UniProt P20138 18-364)
Chain of human CD33 variant Y50Q (P20138 18-364 Y50Q limits assumed): as the sequence (P20138 18-364 Y50N limits assumed) above, with N33Q counted along it
Protocol: as §1, §2

human CD33 variant K52G = human CD33 variant K52G (human, UniProt P20138 18-364)
Protocol: as §1, §2

human CD33 variant V56R = human CD33 variant V56R (human, UniProt P20138 18-364)
Chain of human CD33 variant V56R (P20138 18-364 V56R limits assumed): as the sequence (P20138 18-364 Y50N limits assumed) above, with N33Y, V39R counted along it
Protocol: as §1, §2

human CD33 variant P48M = human CD33 variant P48M (human, UniProt P20138 18-364)
Protocol: as §1, §2

human CD33 variant Y49L = human CD33 variant Y49L (human, UniProt P20138 18-364)
Protocol: as §1, §2

human CD33 variant P48Y = human CD33 variant P48Y (human, UniProt P20138 18-364)
Chain of human CD33 variant P48Y (P20138 18-364 P48Y limits assumed): as the sequence (P20138 18-364 Y50N limits assumed) above, with P31Y, N33Y counted along it
Protocol: as §1, §2

human CD33 variant I47F = human CD33 variant I47F (human, UniProt P20138 18-364)
Protocol: as §1, §2

human CD33 variant Y50G = human CD33 variant Y50G (human, UniProt P20138 18-364)
Chain of human CD33 variant Y50G (P20138 18-364 Y50G limits assumed): as the sequence (P20138 18-364 Y50N limits assumed) above, with N33G counted along it
Protocol: as §1, §2

human CD33 variant K52D = human CD33 variant K52D (human, UniProt P20138 18-364)
Protocol: as §1, §2

human CD33 variant K52F = human CD33 variant K52F (human, UniProt P20138 18-364)
Protocol: as §1, §2

human CD33 variant P48F = human CD33 variant P48F (human, UniProt P20138 18-364)
Protocol: as §1, §2

human CD33 variant P48Q = human CD33 variant P48Q (human, UniProt P20138 18-364)
Protocol: as §1, §2

human CD33 variant P48N = human CD33 variant P48N (human, UniProt P20138 18-364)
Protocol: as §1, §2

human CD33 variant M120I = human CD33 variant M120I (human, UniProt P20138 18-364)
Chain of human CD33 variant M120I (P20138 18-364 M120I limits assumed): as the sequence (P20138 18-364 Y50N limits assumed) above, with N33Y, M103I counted along it
Protocol: as §1, §2

human CD33 variant S131G = human CD33 variant S131G (human, UniProt P20138 18-364)
Chain of human CD33 variant S131G (P20138 18-364 S131G limits assumed): as the sequence (P20138 18-364 Y50N limits assumed) above, with N33Y, S114G counted along it
Protocol: as §1, §2

human CD33 variant Y49G = human CD33 variant Y49G (human, UniProt P20138 18-364)
Protocol: as §1, §2

human CD33 variant Y127R = human CD33 variant Y127R (human, UniProt P20138 18-364)
Protocol: as §1, §2

human CD33 variant Y49R = human CD33 variant Y49R (human, UniProt P20138 18-364)
Protocol: as §1, §2

human CD33 variant Y50L = human CD33 variant Y50L (human, UniProt P20138 18-364)
Protocol: as §1, §2

human CD33 variant P48S = human CD33 variant P48S (human, UniProt P20138 18-364)
Protocol: as §1, §2

human CD33 variant I47Y = human CD33 variant I47Y (human, UniProt P20138 18-364)
Protocol: as §1, §2

human CD33 variant R122T = human CD33 variant R122T (human, UniProt P20138 18-364)
Protocol: as §1, §2

human CD33 variant Y50S = human CD33 variant Y50S (human, UniProt P20138 18-364)
Chain of human CD33 variant Y50S (P20138 18-364 Y50S limits assumed): as the sequence (P20138 18-364 Y50N limits assumed) above, with N33S counted along it
Protocol: as §1, §2

human CD33 variant Y129S = human CD33 variant Y129S (human, UniProt P20138 18-364)
Protocol: as §1, §2

human CD33 variant K52E = human CD33 variant K52E (human, UniProt P20138 18-364)
Chain of human CD33 variant K52E (P20138 18-364 K52E limits assumed): as the sequence (P20138 18-364 Y50N limits assumed) above, with N33Y, K35E counted along it
Protocol: as §1, §2

human CD33 variant R122E = human CD33 variant R122E (human, UniProt P20138 18-364)
Protocol: as §1, §2

human CD33 variant D51K = human CD33 variant D51K (human, UniProt P20138 18-364)
Chain of human CD33 variant D51K (P20138 18-364 D51K limits assumed): as the sequence (P20138 18-364 Y50N limits assumed) above, with N33Y, D34K counted along it
Protocol: as §1, §2

Chain of human CD33 variant I47P (P20138 18-364 I47P limits assumed): as the sequence (P20138 18-364 Y50N limits assumed) above, with I30P, N33Y counted along it
Chain of human CD33 variant R122F (P20138 18-364 R122F limits assumed): as the sequence (P20138 18-364 Y50N limits assumed) above, with N33Y, R105F counted along it

Mean % WT Binding (human CD33 variant R122F)	Mean % WT Binding (human CD33 variant K52L)	Mean % WT Binding (human CD33 variant I47P)	Mean % WT Binding (human CD33 variant P48V)	Mean % WT Binding (human CD33 variant Y50N)	Mean % WT Binding (human CD33 variant K52T)	Mean % WT Binding (human CD33 variant R122G)	Mean % WT Binding (human CD33 variant R122I)	Mean % WT Binding (human CD33 variant Y50Q)	Mean % WT Binding (human CD33 variant K52G)	Mean % WT Binding (human CD33 variant V56R)	Mean % WT Binding (human CD33 variant P48M)	Mean % WT Binding (human CD33 variant Y49L)	Mean % WT Binding (human CD33 variant P48Y)	Mean % WT Binding (human CD33 variant I47F)	Mean % WT Binding (human CD33 variant Y50G)	Mean % WT Binding (human CD33 variant K52D)	Mean % WT Binding (human CD33 variant K52F)	Mean % WT Binding (human CD33 variant P48F)	Mean % WT Binding (human CD33 variant P48Q)	also measured	Binder
110 % of WT	97.6 % of WT	84.5 % of WT	121 % of WT	96.3 % of WT	102 % of WT	109 % of WT	110 % of WT	93.9 % of WT	98.8 % of WT	98.5 % of WT	110 % of WT	100 % of WT	99.5 % of WT	101 % of WT	92.8 % of WT	101 % of WT	4.5 % of WT	94.6 % of WT	120 % of WT	Mean % WT Binding (human CD33 variant I47Q): 104 % of WT; Mean % WT Binding (human CD33 variant P48N): 100 % of WT; Mean % WT Binding (human CD33 variant M120I): 96.6 % of WT; Mean % WT Binding (human CD33 variant S131G): 95.1 % of WT; Mean % WT Binding (human CD33 variant Y49G): 107 % of WT; Mean % WT Binding (human CD33 variant Y127R): 84 % of WT; Mean % WT Binding (human CD33 variant Y49R): 87.1 % of WT; Mean % WT Binding (human CD33 variant Y50L): 109 % of WT; Mean % WT Binding (human CD33 variant P48S): 97.5 % of WT; Mean % WT Binding (human CD33 variant I47Y): 110 % of WT; Mean % WT Binding (human CD33 variant R122T): 113 % of WT; Mean % WT Binding (human CD33 variant Y50S): 101 % of WT; Mean % WT Binding (human CD33 variant Y129S): 68.7 % of WT; Mean % WT Binding (human CD33 variant K52E): 98.6 % of WT; Mean % WT Binding (human CD33 variant R122E): 110 % of WT; Mean % WT Binding (human CD33 variant D51K): 90.7 % of WT	Refmab #1 (antibody, human IgG1, V domains shown, Tested in IgG format; human IgG1 (Absolute Antibody hP67.6, Cat. No. Ab00283-10.0); also called hP67.6) VH: EVQLVQSGAEVKKPGSSVKVSCKASGYTITDSNIHWVRQAPGQSLEWIGYIYPYNGGTDYNQKFKNRATLTVDNPTNTAYMELSSLRSEDTAFYYCVNGNPWLAYWGQGTLVTVSS VL: DIQLTQSPSTLSASVGDRVTITCRASESLDNYGIRFLTWFQQKPGKAPKLLMYAASNQGSGVPSRFSGSGSGTEFTLTISSLQPDDFATYYCQQTKEVPWSFGQGTKVEVK
106 % of WT	94.9 % of WT	2.8 % of WT	113 % of WT	92.4 % of WT	103 % of WT	114 % of WT	112 % of WT	95.4 % of WT	106 % of WT	97.7 % of WT	106 % of WT	93.8 % of WT	90.3 % of WT	102 % of WT	91.2 % of WT	101 % of WT	6 % of WT	100 % of WT	101 % of WT	Mean % WT Binding (human CD33 variant I47Q): 106 % of WT; Mean % WT Binding (human CD33 variant P48N): 98.8 % of WT; Mean % WT Binding (human CD33 variant M120I): 81.6 % of WT; Mean % WT Binding (human CD33 variant S131G): 100 % of WT; Mean % WT Binding (human CD33 variant Y49G): 108 % of WT; Mean % WT Binding (human CD33 variant Y127R): 65.9 % of WT; Mean % WT Binding (human CD33 variant Y49R): 79 % of WT; Mean % WT Binding (human CD33 variant Y50L): 106 % of WT; Mean % WT Binding (human CD33 variant P48S): 100 % of WT; Mean % WT Binding (human CD33 variant I47Y): 109 % of WT; Mean % WT Binding (human CD33 variant R122T): 103 % of WT; Mean % WT Binding (human CD33 variant Y50S): 97.2 % of WT; Mean % WT Binding (human CD33 variant K52E): 106 % of WT; Mean % WT Binding (human CD33 variant R122E): 101 % of WT; Mean % WT Binding (human CD33 variant D51K): 88.9 % of WT	Refmab #3 (antibody, human IgG1, V domains shown, Tested in IgG format; human IgG1 Fc silent (PG-LALA)) VH: QVQLVQSGAEVKKPGSSVKVSCKASGYTFTDYNMHWVRQAPGQGLEWIGYIYPYNGGTGYNQKFKSKATITADESTNTAYMELSSLRSEDTAVYYCARGRPAMDYWGQGTLVTVSS VL: DIQMTQSPSSLSASVGDRVTITCRASESVDNYGISFMNWFQQKPGKAPKLLIYAASNQGSGVPSRFSGSGSGTDFTLTISSLQPDDFATYYCQQSKEVPWTFGQGTKVEIK
1.2 % of WT	74.8 % of WT	0.7 % of WT	79.5 % of WT	108 % of WT	120 % of WT	12.2 % of WT	1.1 % of WT	113 % of WT	25.4 % of WT	107 % of WT	87.5 % of WT	108 % of WT	21.6 % of WT	2.2 % of WT	104 % of WT	5.3 % of WT	3.9 % of WT	68.7 % of WT	106 % of WT	Mean % WT Binding (human CD33 variant P48N): 95.2 % of WT; Mean % WT Binding (human CD33 variant M120I): 95.7 % of WT; Mean % WT Binding (human CD33 variant S131G): 112 % of WT; Mean % WT Binding (human CD33 variant Y127R): 110 % of WT; Mean % WT Binding (human CD33 variant Y49R): 44.9 % of WT; Mean % WT Binding (human CD33 variant Y50L): 119 % of WT; Mean % WT Binding (human CD33 variant P48S): 92.1 % of WT; Mean % WT Binding (human CD33 variant I47Y): 1.4 % of WT; Mean % WT Binding (human CD33 variant R122T): 1.5 % of WT; Mean % WT Binding (human CD33 variant Y50S): 123 % of WT; Mean % WT Binding (human CD33 variant Y129S): 102 % of WT; Mean % WT Binding (human CD33 variant K52E): 52.4 % of WT; Mean % WT Binding (human CD33 variant R122E): 0.6 % of WT; Mean % WT Binding (human CD33 variant D51K): 2.7 % of WT	Refmab #2 (antibody, human IgG1, V domains shown, Tested in IgG format; human IgG1 Fc silent (PG-LALA)) VH: QVQLVQSGAEVKKPGSSVKVSCKASGGTFSDYAISWVRQAPGQGLEWMGRIIPILGVADYAQKFQGRVTITADKSTRTAYMELSSLRSEDTAVYYCARNWADAFDIWGQGTMVTVSS VL: DIQLTQSPSSLSASVGDRVTITCRASQGISSVLAWYQQKPGKAPKLLIYDASSLESGVPSRFSGSGSGTDFTLTISSLQPEDFATYYCQQFDSSITFGQGTKLEIK
